The record followed here is paper PMC5924885 (Proceedings of the National Academy of Sciences of the …, 2018).

This experiment addresses Akt1 kinase domain (Akt1^KD) (human, UniProt P31749 144-472, exclusively monophosphorylated, predominantly in the turn motif (T450)). Description: fluorescence polarisation. In general terms: Polarisation of emitted light reports the rotation of a fluorescent probe.

Sequence of Akt1 kinase domain (Akt1^KD) (P31749 144-472): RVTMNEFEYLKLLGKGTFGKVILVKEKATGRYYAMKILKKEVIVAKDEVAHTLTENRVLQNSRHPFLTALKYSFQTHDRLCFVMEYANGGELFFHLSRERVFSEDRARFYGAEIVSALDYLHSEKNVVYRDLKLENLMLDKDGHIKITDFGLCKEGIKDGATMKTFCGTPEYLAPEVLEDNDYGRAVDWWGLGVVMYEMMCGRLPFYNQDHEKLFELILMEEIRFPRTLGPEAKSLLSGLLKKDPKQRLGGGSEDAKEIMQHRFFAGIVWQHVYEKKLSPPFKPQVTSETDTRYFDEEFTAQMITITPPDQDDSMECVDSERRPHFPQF

B1: Atto488-labeled Akt1 PH domain (Akt1^1-120 T101C) (domain or fragment, human, UniProt P31749 1-120, looked up)
chain: MSDVAIVKEGWLHKRGEYIKTWRPRYFLLKNDGTFIGYKERPQDVDQREAPLNNFSVAQCQLMKTERPRPNTFIIRCLQWTTVIERTFHVETPEEREEWTCAIQTVADGLKKQEEEEMDF
modifications: Atto488 (maleimide) label, about 50% labeling efficiency
In general, Kd refers to the equilibrium constant for the complex coming apart. Higher therefore signals weaker binding. In the case of B1, the Kd is 7 µM.
